Assay: yeast display, Sf9 membrane polyspecificity reagent, FACS + sequencing; frameworks hold sequencing errors
Procedure, shortened: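 Synthetic nanobody libraries on Saccharomyces cerevisiae BJ5465 were galactose-induced for 36–48 hours, stained 1 hour at 4 °C with 10% biotinylated, detergent-solubilized Sf9 membrane reagent and enriched on streptavidin microbeads. FACS then separated cells into low and high (top ~1%) gates by anti-HA (expression) and streptavidin (reagent binding) fluorescence. Genes were colony-PCR amplified, MiSeq 2 × 250 sequenced and CDR-length filtered. A clone's polyreactivity label is that of its gate of origin.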

Row | Sequence | polyreactivity (PSR sort gate)
1 | QVQLVESGGGLVQAGGSLRLSCAASGSTFPVNTMGWYRQAPGKERELVAAISWSGGRTYYADSVKGRFTISRDNAKNTVYLQMNSLKPEDTAVYYCAAEWEGTYTTVPDEFNYWGQGTQVTVSS | high polyreactivity
2 | QVQLVESGGGLVQAGGSLRLSCAASGLIFGSYAMGWYRQAPGKERELVAASSRSGGSTYYADSVKGRFTISRDKAKNSVYLQMISLKPEDTAVYYFAADDYSSEYDYWGQGTQVTVSS | high polyreactivity
3 | QVQLVESGGGIVQAGGSLRLSCAASGRTFRKNAMAWYRQAPGKERELVAAISASGTSTNYADSVKGRFTISRDNAKNTVYLQMISLIPEDTSVYYCDARSYGIYDYWGQGTQVTVSS | high polyreactivity
4 | QVKQQESGGGLVKAGGSLRLSCAASGNISNHNDMGRYRQAPGKEREFVAGITAGGITNYADRVKGRCTISRDNAKNTVYLQMNCLKPEETAVYYCAAYADYAKSYGYWGQGTQATVSS | low polyreactivity
5 | QVQLVESGGGLVQAGGSLRLSCAASGLTFTGNAMGWNRQAPGKEREFVAAIRWSAGSTYYADSVKGRFTISRDNAKNTVYLQMNSLKPEDSAVYYCNAGLNVSGHYPNDYWGQGTQVTVSS | low polyreactivity
6 | QVQLVESGGGLVQAGGSLRLSCAASGFTFGEYAMGWYRQAPGKEREFVAAISATGGSTYYADSVKGRFTISRDNAKNTVYLQMNSLKPEDTAVYYCAARDAYYDGYDYWGQGTQVTVSS | low polyreactivity
7 | QVQLVESGGGLVQAGGSLRLTCAASGSIFSFYAMGWYRQAPGKERELVAAITQSDSSTYYADSVKGRFTISRDNAKNTVYLQMNSLKPVDTAVYYCAKDYYAYSDYDYWGQGTQVTVSS | low polyreactivity
8 | QVKLVESGRGLVQAGGSLRLSCAASGITFISNAMAVYRQAPGKERELVAAISYRGGSTYYADSVKGRFTISRDNAKNTVYLQMNSLKPEDTAVYDCAARFHYPGGPRYYYWGQGTQVTVSS | high polyreactivity
9 | QVQLVESGGGLVQAGGSLRLSCAASGSTFAYNTMGWYRKAPGKERELVAAITQLGGSTYADSVKGRFTISRDNAKNTVYLQINSLKPEENAVYYCAADGYTYKFDYWGQGTQVTVSS | low polyreactivity
10 | HVQLEESGGGLVQAGGSLRLSCAASGFTFNRYAMGWYRQAPGKERELVAAISSGGRTYYADSVKGRFTISRDNAKNTVYLQMNRLKPDDTAVYYCAADWSLYSHEFDYWGQGTQVTVSS | high polyreactivity
11 | QVQLVESGGGLVQAGGSLRLSCAGSGSTVSANALGSYRQAPGKDRELVAAISRRGGSTNYADSVKGRFTISRDNAKNTVYLQMNSLKPEDTAVYYCAGLYVPRSPFSYDYWGQGTQVTVSS | high polyreactivity
12 | QVQLVESGGGLVQAGGSLRLSCAASGTFTVNTMGCYRQAPGKERELVAAISTGDTTTYADSVKGRFTISRDNAKNTVYLQMNSLKPEDTAVYYCNVDIGVYAYESDYWGQGTQVTVSS | low polyreactivity
13 | QVQLVESGGGLVQAGGSLRLSCAASGIIFRWYGMGWYRQAPGKERELVATITSGGRTNYADSVKGRFTISRDNAKNTGYLQMHSLKPEDTAVYYCAAARLFAMDYWGQGTQVTVSS | low polyreactivity
14 | QVQLVESEGGLVQAGGSLRLTCAASGFIYKGYAMGSYRQAPGKETELVAAISSSGTSTYYADSVKGRFTISRDNAKNTVYLQMNSLKPEDTAVYYCARVSKRTWSGYYYWGQGTQVTVSS | high polyreactivity
15 | QVQLVESGGGLVQAGGSLRLSCAASGSTFRYNAMGWYRQAPGKERELVAAISRIGGTTYADSVKGRFTISRDNAKNTVYLQMNSLKPEDTAVYYCARANWGYYGPEYGYWGQGTQVTVSS | low polyreactivity
16 | QVQLVESGGCLVQAGGSLRLSCAASGSIFLFYAMGWYRHPPGKERELVAVIDTRASTTYYADSVKGRFTISRDNAKNTVYLQMNSLKPEDTAVYYCAAELQFTLYYSRPLLYQYYYWGQGTQVTVSS | high polyreactivity

Row | Sequence | polyreactivity (PSR sort gate)
17 | QVQLVESGGGLVQAGGSLRLSCAASGGIFAPYVMGWYRQAPGKERELVAGITWSGGSTYYADSVKGRFTISRDNAKITVYLQMNSLKPEDTAVYYCAAEWYYSVIWLYEYWGQVTQVTVSS | high polyreactivity
18 | QVQLVESGGGLVQAGGSLRLSCAASGSTFVAYVMGWYRQAPGKERELVASITSGGITNYADSVKGRFTISRDNAKNTVYLQMNSLKPEDTAVKGDYWGQGTQVTVSS | low polyreactivity
19 | QVQLVESGGGLVQAGGSLRLSCAASGRIFDFYAMGWYRQAPGKERELVAAISWDGSDTYYADSVKGRFTISRDNAKNTVYLQMNSLKPEDTAVYYCAADYYSPSGQEYNYWGQGTQVTVSS | high polyreactivity
20 | QVQLVDSGGALVQAGGSLRLRCAASGSTFFPNAKGWYRQAPGKERELVATIKYADSVKGRFTISRYNAKNTVYLQMNSLKPEDTAVYYCAGGGRVRYDYWGQGTQVTVSS | low polyreactivity
21 | QVQLVESGGGLVQAGGSLRLSCAASGSIFRSNDMGWYRQAPGKERELVARITSSVGSTYYADSVKGRFTISRDNAKNTVYLQMNSLKAEDTAVYYGAKRYYHYPYGYRDYDYWGQGTQVTVSS | low polyreactivity
22 | QVQLVESGGGLVQAGGSLRLSCAASGRILDKYAMGWYRPAPGKERELVARIRFSGGDTYADSVKGRFTISRDNAKNTVYLQMNSLKPEDTAVYYCNKDRRNRWDAFDYWGQGTQVTVSS | low polyreactivity
23 | QVQLVESGGGLVQAGGSLRLSCAASGRTFNHYAMGWYRQAPGKERELVAGITISGGSTYYADSVKGRFTISRDHAKNTVDLQMNSLKPEATAVYYCNAVSDYYRQSKWTMDYWGQGTQVTVSS | low polyreactivity
24 | QVQLEESGGGLVQAGGRLRLSCAASGRIIYGYAMGWYRQAPGKERELVAAITATYYADSVKGRFTISRDNAKNTVYLQMNSLKPEDTAVYYCYAYLSPKQPLSPPDPTFEGGYWGQGTQVTVSS | low polyreactivity
25 | QVQLVESGGGLVQAGGSLRLSCAASGFTFPSNGMGWYRQAPGKERELVAVIDWSDDSTYYADSVKGRFTISRDNAKNTVYLQMNSLKPEDTAVYYCNARHYLYHGYIVPKYSYGYDYWGQGTQVTVSS | low polyreactivity
26 | QVQLVESGGGLVQAGGSLRLSCAASGSTFVGYAMGWYRPAPGKERELVAAITIRGGSTYYADSVKGRFTISRDNAKNNVYLQMNSLKPEDTAVYYCAADYWYGGFEYWGQGTQVTVSS | low polyreactivity
27 | QVQLVESGGGLVQAGGSLRLSCAASGLISYAYAMGWYRQAPGKERELVAAIRSSGSTYYADSVKGRFTISLDNAKNTVYLQMNSLKPEDTAVYYCAKRNPIKYYGGGYWGQGTQVTVSS | high polyreactivity
28 | QVQLVESGGGLVQAGGSLRLSCAASGRIFGLNAMGWSRQAPGKERELVASITYSGGSTYYADSVKGRFTISRDNAKNTVYLQMNSLKPEDTAVYYCAARIIVDDVGTKYYYWGQGTQVTVSS | high polyreactivity
29 | QVQLVESGGRIVQAGGSLRLSCAASGRIFWLNAMGRYRQAPGKEREFVASITYGSDSTYYADSVKGRFTISRDTATNTVYFQMNSLKPEDTAVYYCNREGWHYGPYGYWGQGTQVTVSS | low polyreactivity
30 | QVQLVESGGGLVQEGGSLRLSCAACGRTFSWYAMGWYRQAPGKDRELVAAITSGGSTYYADSVKGRFTISRDNAMNTVYLQMNSLKPEDTAVYYCAAQAYVEGVYRYDYWGQGTQVTVSS | low polyreactivity
31 | QVQLVESGGGLVQAGGSLRLSCAASGSTFERYVMGWYRQAPGTERELVAAISRSGGTTYYADSVKGRFTISRDNAKNTVYLHMNSLKPEDTAVYYCAARYSVRGSQRPIYYYWGQGTQVTVSS | high polyreactivity
32 | QVQLVESGGGLVQAGGSLRLSCAASGSTFRRYARGWYRQAPGKERELVAAISTRGGSTYYADSVKGRFTISRDNAKNTVYLQMNSLKPEDTAVYYCAADEPKYTSSSSRRYGYWGQGTQVTVSS | high polyreactivity

From the nanobody polyreactivity screen of Harvey et al. (2022)
